Experimental data reported in publication PMC9482650, “Quantitative fragmentomics allow affinity mapping of interactomes” (Nature Communications, 2022).

T1: DLG3_2, Q92796
T1 sequence (Q92796 221-321, limits assumed, looked up): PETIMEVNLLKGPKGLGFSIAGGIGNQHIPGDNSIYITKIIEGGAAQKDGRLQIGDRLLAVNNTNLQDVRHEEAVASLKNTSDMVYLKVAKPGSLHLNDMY

T2: GRIP1_5, Q9Y3R0
T2 sequence (Q9Y3R0 568-668, limits assumed, looked up): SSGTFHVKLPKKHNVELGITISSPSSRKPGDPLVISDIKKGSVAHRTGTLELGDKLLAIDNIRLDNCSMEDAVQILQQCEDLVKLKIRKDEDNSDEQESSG

T3: SNTB1, Q13884
T3 sequence (Q13884 107-205, limits assumed, looked up): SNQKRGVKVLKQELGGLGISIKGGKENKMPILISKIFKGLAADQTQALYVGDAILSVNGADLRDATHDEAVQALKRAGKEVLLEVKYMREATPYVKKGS

T4: NHERF3_3, Q5T2W1
T4 sequence (Q5T2W1 238-333, limits assumed, looked up): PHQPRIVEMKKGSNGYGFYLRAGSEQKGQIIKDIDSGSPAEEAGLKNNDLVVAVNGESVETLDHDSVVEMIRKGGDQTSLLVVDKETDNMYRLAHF

T5: SIPA1L2, Q9P2F8
T5 sequence (Q9P2F8 945-1036, limits assumed, looked up): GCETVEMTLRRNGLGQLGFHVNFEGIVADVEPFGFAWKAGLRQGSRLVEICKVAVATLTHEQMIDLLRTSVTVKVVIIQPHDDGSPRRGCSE

T6: DVL3, Q92997
T6 sequence (Q92997 244-331, limits assumed, looked up): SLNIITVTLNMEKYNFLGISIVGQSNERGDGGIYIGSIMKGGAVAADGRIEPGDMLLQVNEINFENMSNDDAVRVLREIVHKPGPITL

T7: DFNB31_3, Q9P202
T7 sequence (Q9P202 811-907, limits assumed, looked up): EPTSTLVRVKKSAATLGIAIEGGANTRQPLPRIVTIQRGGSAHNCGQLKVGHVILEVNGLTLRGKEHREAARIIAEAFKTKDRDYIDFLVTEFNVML

T8: MPDZ_5, O75970
T8 sequence (O75970 695-796, limits assumed, looked up): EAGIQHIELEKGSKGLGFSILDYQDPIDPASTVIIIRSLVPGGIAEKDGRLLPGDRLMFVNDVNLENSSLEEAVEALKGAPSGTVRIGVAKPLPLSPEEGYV

T9: SHANK1, Q9Y566
T9 sequence (Q9Y566 658-767, limits assumed, looked up): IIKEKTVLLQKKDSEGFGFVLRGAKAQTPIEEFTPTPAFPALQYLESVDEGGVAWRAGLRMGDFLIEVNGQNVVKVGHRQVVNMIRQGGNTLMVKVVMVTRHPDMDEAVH

T10: LIN7C, Q9NUP9
T10 sequence (Q9NUP9 88-185, limits assumed, looked up): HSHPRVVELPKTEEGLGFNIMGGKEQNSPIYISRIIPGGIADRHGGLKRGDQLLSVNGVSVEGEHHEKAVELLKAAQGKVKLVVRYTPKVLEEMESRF

T11: NHERF3_4, Q5T2W1
T11 sequence (Q5T2W1 373-468, limits assumed, looked up): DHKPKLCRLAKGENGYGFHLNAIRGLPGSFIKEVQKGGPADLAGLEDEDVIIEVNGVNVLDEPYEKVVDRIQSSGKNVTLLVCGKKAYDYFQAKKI

T12: LNX2_2, Q8N448
T12 sequence (Q8N448 334-432, limits assumed, looked up): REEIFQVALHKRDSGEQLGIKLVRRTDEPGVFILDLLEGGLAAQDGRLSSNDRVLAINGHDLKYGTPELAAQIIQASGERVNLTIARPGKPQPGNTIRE


Experiments:
Test in all cases: holdup assay
Design in all cases: key: below the threshold = too weak to quantify, mostly under pKd 3.1 to 4
Conditions in all cases: plain residues with an end cap or a label only (N-terminal biotin on a linker: ado-ado)
FRMPD2_3, Q68DX3 = biological target: FRMPD2_3, Q68DX3
Sequence of FRMPD2_3, Q68DX3 (Q68DX3 1073-1166): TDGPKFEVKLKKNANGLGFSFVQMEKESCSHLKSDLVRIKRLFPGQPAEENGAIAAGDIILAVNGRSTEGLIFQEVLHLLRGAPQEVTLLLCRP

GRID2IP_1, A4D2P6 = biological target: GRID2IP_1, A4D2P6
Sequence of GRID2IP_1, A4D2P6 (A4D2P6 1-87): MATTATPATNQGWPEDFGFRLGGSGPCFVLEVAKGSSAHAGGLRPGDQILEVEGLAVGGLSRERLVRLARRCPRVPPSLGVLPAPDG

DLG3_2, Q92796 = biological target: T1, DLG3_2, Q92796
GRIP1_5, Q9Y3R0 = biological target: T2, GRIP1_5, Q9Y3R0
Inadl_2, Q8NI35 = biological target: Inadl_2, Q8NI35
Sequence of Inadl_2, Q8NI35 (Q8NI35 238-335): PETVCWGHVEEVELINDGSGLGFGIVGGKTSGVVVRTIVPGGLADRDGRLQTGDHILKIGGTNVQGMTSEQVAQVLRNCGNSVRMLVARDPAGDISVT

SCRIB_2, Q14160 = biological target: SCRIB_2, Q14160
Sequence of SCRIB_2, Q14160 (Q14160 857-960): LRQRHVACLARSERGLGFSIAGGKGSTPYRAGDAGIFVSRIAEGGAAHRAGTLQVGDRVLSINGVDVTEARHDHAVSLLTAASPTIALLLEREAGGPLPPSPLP

SNTB1, Q13884 = biological target: T3, SNTB1, Q13884
NHERF3_3, Q5T2W1 = biological target: T4, NHERF3_3, Q5T2W1
AHNAK1, Q09666 = biological target: AHNAK1, Q09666
Sequence of AHNAK1, Q09666 (Q09666 4-100): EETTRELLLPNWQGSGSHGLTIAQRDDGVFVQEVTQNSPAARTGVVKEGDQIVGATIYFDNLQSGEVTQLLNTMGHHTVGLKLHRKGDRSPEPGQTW

MAGI3_2, Q5TCQ9 = biological target: MAGI3_2, Q5TCQ9
Sequence of MAGI3_2, Q5TCQ9 (Q5TCQ9 398-503): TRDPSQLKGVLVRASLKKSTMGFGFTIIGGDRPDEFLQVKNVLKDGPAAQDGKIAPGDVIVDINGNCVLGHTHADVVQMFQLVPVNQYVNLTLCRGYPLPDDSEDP

FRMPD4, Q14CM0 = biological target: FRMPD4, Q14CM0
Sequence of FRMPD4, Q14CM0 (Q14CM0 67-160): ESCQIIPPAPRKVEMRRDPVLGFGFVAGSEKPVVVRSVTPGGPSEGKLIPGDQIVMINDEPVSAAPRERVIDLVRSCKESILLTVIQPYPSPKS

SIPA1L2, Q9P2F8 = biological target: T5, SIPA1L2, Q9P2F8
DVL3, Q92997 = biological target: T6, DVL3, Q92997
LNX1_2, Q8TBB1 = biological target: LNX1_2, Q8TBB1
Sequence of LNX1_2, Q8TBB1 (Q8TBB1 371-470): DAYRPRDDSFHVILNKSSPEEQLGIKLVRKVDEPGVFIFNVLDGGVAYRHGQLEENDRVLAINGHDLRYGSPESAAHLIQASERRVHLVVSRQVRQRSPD

GORASP2, Q9H8Y8 = biological target: GORASP2, Q9H8Y8
GRIP2_3, Q9C0E4 = biological target: GRIP2_3, Q9C0E4
Sequence of GRIP2_3, Q9C0E4 (Q9C0E4 238-339): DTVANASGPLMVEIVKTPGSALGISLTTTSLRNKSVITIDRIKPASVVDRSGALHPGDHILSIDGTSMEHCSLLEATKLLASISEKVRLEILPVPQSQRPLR

DFNB31_3, Q9P202 = biological target: T7, DFNB31_3, Q9P202
MPDZ_5, O75970 = biological target: T8, MPDZ_5, O75970
PICK1, Q9NRD5 = biological target: PICK1, Q9NRD5
Sequence of PICK1, Q9NRD5 (Q9NRD5 17-115): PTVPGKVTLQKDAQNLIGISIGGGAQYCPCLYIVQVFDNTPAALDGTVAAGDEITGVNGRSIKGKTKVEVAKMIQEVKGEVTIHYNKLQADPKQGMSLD

TJP1_2, Q07157 = biological target: TJP1_2, Q07157
Sequence of TJP1_2, Q07157 (Q07157 181-274): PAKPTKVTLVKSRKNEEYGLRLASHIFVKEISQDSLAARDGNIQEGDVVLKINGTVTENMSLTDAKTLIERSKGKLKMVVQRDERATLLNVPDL

SHANK1, Q9Y566 = biological target: T9, SHANK1, Q9Y566
LIN7C, Q9NUP9 = biological target: T10, LIN7C, Q9NUP9
NHERF3_4, Q5T2W1 = biological target: T11, NHERF3_4, Q5T2W1
LNX2_2, Q8N448 = biological target: T12, LNX2_2, Q8N448
GORASP1, Q9BQQ3 = biological target: GORASP1, Q9BQQ3
Sequence of GORASP1, Q9BQQ3 (Q9BQQ3 1-208): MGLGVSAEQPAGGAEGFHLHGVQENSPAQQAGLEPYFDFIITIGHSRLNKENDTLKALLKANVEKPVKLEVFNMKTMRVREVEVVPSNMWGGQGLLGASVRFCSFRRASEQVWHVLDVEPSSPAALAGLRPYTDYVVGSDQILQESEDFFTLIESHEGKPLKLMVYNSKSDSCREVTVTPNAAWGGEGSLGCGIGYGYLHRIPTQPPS

| Binder | pKd (FRMPD2_3, Q68DX3) | pKd (GRID2IP_1, A4D2P6) | pKd (DLG3_2, Q92796) | pKd (GRIP1_5, Q9Y3R0) | pKd (Inadl_2, Q8NI35) | pKd (SCRIB_2, Q14160) | pKd (SNTB1, Q13884) | pKd (NHERF3_3, Q5T2W1) | pKd (AHNAK1, Q09666) | pKd (MAGI3_2, Q5TCQ9) | pKd (FRMPD4, Q14CM0) | pKd (SIPA1L2, Q9P2F8) | pKd (DVL3, Q92997) | pKd (LNX1_2, Q8TBB1) | pKd (GORASP2, Q9H8Y8) | pKd (GRIP2_3, Q9C0E4) | pKd (DFNB31_3, Q9P202) | pKd (MPDZ_5, O75970) | pKd (PICK1, Q9NRD5) | pKd (TJP1_2, Q07157) | further results |
| --- | --- | --- | --- | --- | --- | --- | --- | --- | --- | --- | --- | --- | --- | --- | --- | --- | --- | --- | --- | --- | --- |
| NIAESLESLV [PTPRZ1, P23471] | below the threshold | below the threshold | 4.81 | below the threshold | below the threshold | 3.66 | 4.68 | below the threshold | below the threshold | 4.92 | below the threshold | below the threshold | below the threshold | below the threshold | below the threshold | below the threshold | below the threshold | below the threshold | below the threshold | below the threshold | pKd (SHANK1, Q9Y566): below the threshold; pKd (LIN7C, Q9NUP9): 4.08; pKd (NHERF3_4, Q5T2W1): below the threshold; pKd (LNX2_2, Q8N448): 4.05; pKd (GORASP1, Q9BQQ3): below the threshold |
| MQHQRTHTRV [ZSCAN30, Q86W11] | 3.5 | 3.57 | 4.88 | below the threshold | below the threshold | 3.79 | 4.15 | 3.64 | below the threshold | 5.37 | below the threshold | below the threshold | below the threshold | 3.58 | 4.38 | below the threshold | below the threshold | below the threshold | below the threshold | below the threshold | pKd (SHANK1, Q9Y566): 4.08; pKd (LIN7C, Q9NUP9): below the threshold; pKd (NHERF3_4, Q5T2W1): 3.51; pKd (LNX2_2, Q8N448): 4.47; pKd (GORASP1, Q9BQQ3): 4.1 |
| VKRNSKETVV [MARCHF3, Q86UD3] | below the threshold | below the threshold | 5.52 | below the threshold | below the threshold | 3.89 | 5.19 | below the threshold | below the threshold | 5.72 | below the threshold | below the threshold | below the threshold | 3.68 | 4.6 | below the threshold | 3.92 | below the threshold | below the threshold | below the threshold | pKd (SHANK1, Q9Y566): below the threshold; pKd (LIN7C, Q9NUP9): 3.95; pKd (NHERF3_4, Q5T2W1): below the threshold; pKd (LNX2_2, Q8N448): 5.2; pKd (GORASP1, Q9BQQ3): 4.09 |
| ILRKSTTTTV [PRR16, Q569H4] | below the threshold | below the threshold | 5.07 | below the threshold | below the threshold | below the threshold | 3.85 | below the threshold | below the threshold | 5.15 | below the threshold | below the threshold | below the threshold | 3.8 | 4.73 | below the threshold | below the threshold | below the threshold | 3.95 | below the threshold | pKd (SHANK1, Q9Y566): below the threshold; pKd (LIN7C, Q9NUP9): below the threshold; pKd (NHERF3_4, Q5T2W1): below the threshold; pKd (LNX2_2, Q8N448): 4.84; pKd (GORASP1, Q9BQQ3): 4.19 |
